According to US20230073274A1 (NOVELMED THERAPEUTICS, published 2023):

Assays:
[1] = target: T1, human properdin (human, UniProt P27918 28-469); test: cell-based or functional assay
[2] = target: T1, human properdin; test: cell-based or functional assay; remark: listed apart in the source
[3] = target: T1, human properdin; test: cell-based or functional assay; remark: listed apart in the source
[4] = target: T1, human properdin; test: cell-based or functional assay; remark: listed apart in the source
[5] = target: T1, human properdin; test: ELISA, human properdin coated on plate
Experimental: (§1) Polystyrene microtiter plates were coated with human (2.0 μg/50 μl per well) properdin in phosphate buffered saline (PBS) overnight at 4° C. After aspirating the properdin solution, the wells were blocked with PBS containing 1% bovine serum albumin (BSA) (Sigma-Aldrich, St. Louis, Mo.) for 2 hours at room temperature. Wells without peptide or properdin coating served as background controls. Aliquots of the test antibody in blocking solution were added to the properdin coated wells and allowed to incubate for 1 hour to allow binding to occur. Following a 1 hour incubation at room temperature, the plate was rinsed with PBS five times and incubated with 1:2000 diluted anti-properdin polyclonal antibody.

[6] = target: T1, human properdin; test: ELISA, human properdin coated on the plate, OD 450 nm
Experimental: as §1

[7] = target: T1, human properdin; test: cell-based or functional assay; remark: listed apart in the source
[8] = target: T1, human properdin; test: ELISA, properdin coated on the plate, OD 450 nm

T1 sequence (P27918 28-469 limits assumed): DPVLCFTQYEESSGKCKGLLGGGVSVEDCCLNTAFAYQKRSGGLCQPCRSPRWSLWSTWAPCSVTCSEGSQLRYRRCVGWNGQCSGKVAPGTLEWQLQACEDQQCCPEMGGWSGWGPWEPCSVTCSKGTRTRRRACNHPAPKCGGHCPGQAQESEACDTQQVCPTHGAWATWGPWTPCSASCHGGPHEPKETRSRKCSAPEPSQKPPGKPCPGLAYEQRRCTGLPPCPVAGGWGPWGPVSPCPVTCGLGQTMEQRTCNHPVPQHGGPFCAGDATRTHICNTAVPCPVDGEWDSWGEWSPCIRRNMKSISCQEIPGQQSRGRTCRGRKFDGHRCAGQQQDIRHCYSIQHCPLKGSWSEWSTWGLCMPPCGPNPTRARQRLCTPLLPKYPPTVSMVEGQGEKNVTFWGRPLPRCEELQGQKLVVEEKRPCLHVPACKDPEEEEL

Row | MAC (µg/Ml); inhibition of MAC formation [1] | Properdin (µg/mL); inhibition of properdin deposition [1] | IC50 (read off the curve): properdin deposition (AP activation on LPS, 10% normal human serum) [2] | IC50 (read off the curve): C3b deposition (AP activation on LPS, normal human serum) [3] | IC50 (read off the curve): properdin deposition (AP C3 convertase formation assay) [4] | Binding Affinity [5] | EC50 (read off the curve) [6] | IC50 (read off the curve): C3b deposition (sheet title: LPS C3b 10% NHS) [7] | EC50 (read off the curve) [8] | Binder
1 | 1 µg/mL | 2 µg/mL | ~0.8 µg/mL | ~0.5 µg/mL | ~0.4 µg/mL | 270 pM | 0.2 to 0.3 nM | – | – | NMT15 (antibody, V domains shown) VH: QVQLVQSAPEVAKPGTSVKMSCKASGYIFTNYPIHWVKQAPGQGLEWIGFIDPGGGYDEPDERFRDRATLTADKSTSTAYMELSSLRSEDTAIYYCARRGGGYYLDYWGQGTLVTVSS VL: DIQMTQSPSSLSASLGDRVTITCRASQDISFFLNWYQQKPDGTVKLLIYYTSRYHSGVPSRFSGSGSGTDFTLTISSLQPEDFATYFCQHGNTLPWTFGQGTKLEIK
2 | – | – | – | – | – | – | – | ~0.7 µg/mL | ~0.06 nM | NMT31 (antibody, V domains shown) VH: EVTLKESGPTLVKPTQTLTLTCTFSGFSLSTSGMGVGWIRQPPGKALEWLAHIWWDDVKSYNPALKSRLTITKDTSKNQVVLTMTNMDPVDTATYYCARIGDGYYSFDYWGQGTTVTVSS VL: DIQMTQSPSSLSASVGDRVTITCRASQDVSDAVAWFQQKPGKAPKLLIYSPSYRYTGVPSRFSGSGSGTDFTFTISSLQPEDLATYYCQQHYSTPWTFGQGTKLEIK
3 | – | – | – | – | – | – | – | ~0.4 µg/mL | ~0.04 nM | NMT30 (antibody, V domains shown) VH: EVTLKESGPTLVKPTQTLTLTCTFSGFSLSTSGMGVGWIRQPPGKALEWLAHIWWDDVKSYNPALKSRLTITKDTSKNQVVLTITNVDPVDTATYYCARIGDGYYSFDYWGQGTTLTVSS VL: DIQMTQSPSSLSASVGDRVTITCRASQDVSDAVAWFQQKPGKAPKLLIYSPSYRYTGVPSRFSGSGSGTDFTFTISSLQPEDFATYYCQQHYSTPWTFGQGTKLEIK
4 | – | – | – | – | – | – | – | ~0.9 µg/mL | ~0.05 nM | NMT29 (antibody, V domains shown) VH: EVTLKESGPTLVKPTQTLTLTCTFSGFSLSTSGMGVGWIRQPPGKALEWLAHIWWDDVKSYNPALKSRLTITKDTSKNQVVLTMTNMDPVDTATYYCARIGDGYYSFDYWGQGTTVTVSS VL: DIQMTQSPSSLSASVGDRVTITCRASQDVSDAVAWYQQKPGKAPKLLIYSPSYRYTGVPSRFSGSGSGTDFTLTISSLQPEDFATYYCQQHYSTPWTFGQGTKLEIK
